This is an account of results in article PMC1277818, “Substrate specificity analysis of protein kinase complex Dbf2-Mob1 by peptide library and proteome array screening” (BMC Biochemistry, 2005).

The experiment has as its target T1, FHHDbf2-H6Mob1TM9 (Saccharomyces cerevisiae, UniProt P22204+P40484).
T1 construct: made in house; host or cells: Hi5 insect cells (baculovirus)
T1 sequence (P22204 1-572): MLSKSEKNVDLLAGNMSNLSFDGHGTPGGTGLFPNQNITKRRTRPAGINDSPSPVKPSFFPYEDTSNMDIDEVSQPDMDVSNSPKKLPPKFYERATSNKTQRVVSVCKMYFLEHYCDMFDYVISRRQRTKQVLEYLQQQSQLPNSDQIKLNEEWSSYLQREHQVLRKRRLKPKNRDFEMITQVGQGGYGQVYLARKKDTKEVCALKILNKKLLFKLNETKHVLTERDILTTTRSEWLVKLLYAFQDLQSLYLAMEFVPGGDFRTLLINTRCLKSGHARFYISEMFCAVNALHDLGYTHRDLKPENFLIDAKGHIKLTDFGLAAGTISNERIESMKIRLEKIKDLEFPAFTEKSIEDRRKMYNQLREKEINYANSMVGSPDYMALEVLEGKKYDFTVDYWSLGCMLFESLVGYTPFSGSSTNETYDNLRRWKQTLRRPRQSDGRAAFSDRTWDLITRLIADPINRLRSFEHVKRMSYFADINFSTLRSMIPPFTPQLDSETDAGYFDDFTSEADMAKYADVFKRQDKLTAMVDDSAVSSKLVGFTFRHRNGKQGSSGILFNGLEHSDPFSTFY
T1 sequence (P40484 1-314 partner): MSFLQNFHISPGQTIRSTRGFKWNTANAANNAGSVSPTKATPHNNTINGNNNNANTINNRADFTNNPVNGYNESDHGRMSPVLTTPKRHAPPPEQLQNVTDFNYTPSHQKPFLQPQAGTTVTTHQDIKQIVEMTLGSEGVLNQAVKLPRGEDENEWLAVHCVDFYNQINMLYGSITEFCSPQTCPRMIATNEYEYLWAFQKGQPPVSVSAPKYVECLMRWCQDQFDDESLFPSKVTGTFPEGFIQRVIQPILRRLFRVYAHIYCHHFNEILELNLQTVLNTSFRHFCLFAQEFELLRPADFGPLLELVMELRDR
As to the kind of experiment: Yeast proteome chip assay. Format: biochemical. The following applies: [γ-33P]ATP, chips in duplicate. The protocol:
The relatively low sequence complexity of the Dbf2 phosphorylation motif diminished the power of using genome-wide bioinformatics screens to identify putative substrates. Accordingly, we carried out a proteome array screen to identify putative yeast substrates. […] After taking into account the proteins phosphorylated in the negative controls, 67 proteins were determined to be putative Dbf2-Mob1 substrates (Table 3).
Yeast proteome microarrays were prepared as previously described. Overexpressed GST-tagged yeast proteins were purified from ~4,400 yeast strains and spotted on slides. To determine the optimal amount of kinase to use for probing proteome chips, we performed trial assays as described (J. Ptacek et al., submitted). […] The full proteome array was probed with 4 μl ^FHHDbf2-^H6Mob1^TM9 in 200 μl of DKB supplemented with [γ-^33P]ATP. As a control, ^FHHDbf2(N305A)-^H6Mob1^TM9 was used to probe the proteome array. […] To control for autophosphorylated proteins, the proteome array was probed with 200 μl of DKB supplemented with [γ-^33P]ATP. Proteome chips were assayed in duplicate in each case. Data analysis was performed as described (J. Ptacek et al., submitted). Briefly, signals were analyzed by a computer algorithm designed to normalize background and identify signals as positive if 3 of 4 spots (each protein is spotted twice on each slide and each kinase or control was tested on 2 slides) were 2 standard deviations above background and the fourth spot was 1.5 standard deviations above background.

Where [1] appears, read: Table 3, GST fusion proteins on proteome chip, computer analysis.
Setting [2] is: Table 4, the 25 proteins with highest signal relative to protein amount.

B1: YNR006W: GST fusion yeast protein on proteome chip (protein, UniProt P40343 1-622, looked up)
Vacuolar protein …: MSVSTPSELDALIEQATSESIPNGDLDLPIALEISDVLRSRRVNPKDSMRCIKKRILNTADNPNTQLSSWKLTNICVKNGGTPFIKEICSREFMDTMEHVILREDSNEELSELVKTILYELYVAFKNDSQLNYVAKVYDKLISRGIKFPEKLTLSNSPTAMFDSKTPADWIDSDACMICSKKFSLLNRKHHCRSCGGVFCQEHSSNSIPLPDLGIYEPVRVCDSCFEDYDLKRHDDSKKSKKHRHKRKKDRDYSTPEDEEELIRKAIELSLKESRNSASSEPIVPVVESKNEVKRQEIEEEEDPDLKAAIQESLREAEEAKLRSERQKASRQMQPQQPSPQPQPIHSVDLSDEEKDSIYMFASLVEKMKSRPLNEILEDSKLQNLAQRVFASKARLNYALNDKAQKYNTLIEMNGKISEIMNIYDRLLEQQLQSINLSQQYTLPQVPSDPYNYLTENVQNPAESYQTPPLQQLSSHQYKPQQDVSRQQSVKANSSPTTNIDHLKTIDVTPHAQQKPQSHVELAPSDPPYPKEEAEDEGTQAVQDEESSTQESRERPYPVETENGETSINKRPQGITRYDFPTVPARKFVQPESTVPLPASSSEIPIKEERPPSPQEELLIEL
modifications: GST fusion
notes: GST fusion yeast protein on proteome chip
For the molecule B1, the “Slide Signal (after normalization)” value came out at 1.1429 under setting [1] and 1.1429 under setting [2].

B2: YMR239C: GST fusion yeast protein on proteome chip (protein, UniProt Q02555 1-471, looked up)
Ribonuclease 3: MGSKVAGKKKTQNDNKLDNENGSQQRENINTKTLLKGNLKISNYKYLEVIQLEHAVTKLVESYNKIIELSPNLVAYNEAVNNQDRVPVQILPSLSRYQLKLAAELKTLHDLKKDAILTEITDYENEFDTEQKQPILQEISKADMEKLEKLEQVKREKREKIDVNVYENLNEKEDEEEDEGEDSYDPTKAGDIVKATKWPPKLPEIQDLAIRARVFIHKSTIKDKVYLSGSEMINAHNERLEFLGDSILNSVMTLIIYNKFPDYSEGQLSTLRMNLVSNEQIKQWSIMYNFHEKLKTNFDLKDENSNFQNGKLKLYADVFEAYIGGLMEDDPRNNLPKIRKWLRKLAKPVIEEATRNQVALEKTDKLDMNAKRQLYSLIGYASLRLHYVTVKKPTAVDPNSIVECRVGDGTVLGTGVGRNIKIAGIRAAENALRDKKMLDFYAKQRAAIPRSESVLKDPSQKNKKRKFSDTS
modifications: GST fusion
notes: as for B1
Regarding B2, the “Slide Signal (after normalization)” value reads like this: under setting [1], 1.593; under setting [2], 1.593.

B3: YBR118W: GST fusion yeast protein on proteome chip (protein, UniProt P02994 2-458, looked up)
Elongation factor 1-alpha: GKEKSHINVVVIGHVDSGKSTTTGHLIYKCGGIDKRTIEKFEKEAAELGKGSFKYAWVLDKLKAERERGITIDIALWKFETPKYQVTVIDAPGHRDFIKNMITGTSQADCAILIIAGGVGEFEAGISKDGQTREHALLAFTLGVRQLIVAVNKMDSVKWDESRFQEIVKETSNFIKKVGYNPKTVPFVPISGWNGDNMIEATTNAPWYKGWEKETKAGVVKGKTLLEAIDAIEQPSRPTDKPLRLPLQDVYKIGGIGTVPVGRVETGVIKPGMVVTFAPAGVTTEVKSVEMHHEQLEQGVPGDNVGFNVKNVSVKEIRRGNVCGDAKNDPPKGCASFNATVIVLNHPGQISAGYSPVLDCHTAHIACRFDELLEKNDRRSGKKLEDHPKFLKSGDAALVKFVPSKPMCVEAFSEYPPLGRFAVRDMRQTVAVGVIKSVDKTEKAAKVTKAAQKAAKK
modifications: GST tag
notes: as for B1
As for B3, the “Slide Signal (after normalization)” value by setting is: under setting [1], 2.619; under setting [2], 2.619.

B4: YIL135C: GST fusion yeast protein on proteome chip (protein, UniProt P40463 1-436, looked up)
Protein VHS2: MDTSNHNQDHDSHVAAQRENDNNYMPPSPSMSESSMIFERNVEDPSYLYKTVSNNAANSLSRQSSRTSLFNHNNSSNRNFHNLSQRSSAVNLHLQPSRTNESIASYQTYNPDFVVQTPLDHRRTLENFVPPALDAGCSIVTDDTTGLDDVDMVYSRRPSTIGLDRALGRTRSLSSQSFDNETSPAHPRSPNDHGSRLLRFYSYADMLSDDNNNNVSNATSTSSTANPLRRPPMQGHYSFSSSLLNSPSHLPSPPSASASPPQHMNFTNPFIISRRYSNTTINNANGGTSAGSTTGAALSRSPSNQQYLLKQQRSPSGSARSRRNSNRPGSAANIMIGKPKSKFHMESSGSEGFSSEEEDNTMIERDKLNLKQKLQSQLAQPPSIANMVNDNHNNTNKHKNTINNNIKNSPAFTNSNPSSKSNSNSTITSMNPDTTK
modifications: GST tag
notes: as for B1
Turning to B4, the “Slide Signal (after normalization)” value was 1.116 under setting [1] and 1.116 under setting [2].

B5: YNL101W: GST fusion yeast protein on proteome chip (protein, UniProt P50944 1-713, looked up)
Vacuolar amino acid …: MVTNNGDGEHLGIRRNGNLRHPSNNMKIPRRAQSTVLNSNPFYSRKYSMSTLTPRDICRSVDSRVFVDMSSPNFQTLEDPHRDEIINSVRLNYLNSSKRSSVSHGNEAIPRVNPTKNSSASTIAAANVDSDDDETNLSSAGGDITHDIYKLVKAEDPKRLRRPRSMENVTPKIEHHTKLSSASGLNVPGGFRREFIVNKKRQEHQLNDSASSDFTSHESDSINQSSPSSNQDIDKVPFLTRNFLEFLYVFGHFAGESFEDDFIPDSSNMMIRGEDERSALLSRPDHMKVLPSAKGTTSTKKVFLILLKSFIGTGVLFLPNAFHNGGLFFSVSMLAFFGIYSYWCYYILVQAKSSCGVSSFGDIGLKLYGPWMRIIILFSLVITQVGFSGAYMIFTAKNLQAFLDNVFHVGVLPLSYLMVFQTIIFIPLSFIRNISKLSLPSLLANFFIMAGLVIVIIFTAKRLFFDLMGTPAMGVVYGLNADRWTLFIGTAIFAFEGIGLIIPVQDSMRNPEKFPLVLALVILTATILFISIATLGYLAYGSNVQTVILLNLPQSNIFVNLIQLFYSIAIMLSTPLQLFPAIKIIENKFFPKFTKIYVKHDDLTTRVELRPNSGKLNWKIKWLKNFIRSIIVIIVVSIAYFGSDNLDKFVSVIGSLACIPLVYIYPSMLHLRGNSLPETKGEFWRFKPMLDTILIFFGIASMLYTSYQSIFGV
modifications: GST tag
notes: as for B1
Consider B5, for which the “Slide Signal (after normalization)” value came to 2.1486 under setting [1] and 2.1486 under setting [2].
